Reference: US20240182596A1 (TUBULIS, published 2024)

Key:
[1] = biological target: T1, human NaPi2b on NaPi2b-positive cell lines OVCAR-3 and HCC-78 (human, UniProt O95436 1-690); experiment: cell-based or functional assay
T1 sequence: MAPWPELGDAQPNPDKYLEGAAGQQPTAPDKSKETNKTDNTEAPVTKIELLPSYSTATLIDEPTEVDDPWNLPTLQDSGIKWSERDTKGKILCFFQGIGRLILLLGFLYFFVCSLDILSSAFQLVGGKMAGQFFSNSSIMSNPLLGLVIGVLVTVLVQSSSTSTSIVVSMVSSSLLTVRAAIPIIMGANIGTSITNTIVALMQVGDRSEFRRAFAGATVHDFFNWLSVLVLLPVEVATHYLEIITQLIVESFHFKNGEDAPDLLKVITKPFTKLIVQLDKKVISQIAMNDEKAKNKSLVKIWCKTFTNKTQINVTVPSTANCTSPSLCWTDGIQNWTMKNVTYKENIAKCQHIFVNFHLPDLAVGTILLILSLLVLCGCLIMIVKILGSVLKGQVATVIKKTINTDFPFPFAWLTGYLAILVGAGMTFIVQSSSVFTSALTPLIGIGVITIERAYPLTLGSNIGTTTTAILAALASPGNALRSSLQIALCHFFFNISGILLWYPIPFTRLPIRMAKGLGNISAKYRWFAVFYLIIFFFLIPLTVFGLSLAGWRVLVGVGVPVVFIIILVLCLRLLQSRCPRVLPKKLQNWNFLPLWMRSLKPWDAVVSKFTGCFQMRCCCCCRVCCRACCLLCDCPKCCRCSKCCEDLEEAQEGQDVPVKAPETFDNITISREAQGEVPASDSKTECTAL

FcγRIIIa (CD16) (V158) = biological target: T2, FcγRIIIa (CD16) (V158) (Homo sapiens, UniProt P08637); experiment: Lumit FcγRIIIa (V158) Binding Immunoassay (Promega), left panel FcγRIIIa (CD16) (V158), competition with Tracer-LgBiT for FcγR-SmBiT, falling luminescence means binding, n=1
T2 construct: m21 joins both polymorphic variants; also called V158 variant of m21

[2] = biological target: T3, human Napi2c-mCherry on HEK293 cells (human, UniProt Q8N130 1-599); experiment: flow cytometry on HEK293 cells expressing human Napi2c-mCherry (panel Napi2c-HEK293), MFI ratio to the non-specific binding control
T3 construct: whole, on cells; also called Napi2c (SLC34A3); not shown: mCherry fusion
T3 sequence (looked up): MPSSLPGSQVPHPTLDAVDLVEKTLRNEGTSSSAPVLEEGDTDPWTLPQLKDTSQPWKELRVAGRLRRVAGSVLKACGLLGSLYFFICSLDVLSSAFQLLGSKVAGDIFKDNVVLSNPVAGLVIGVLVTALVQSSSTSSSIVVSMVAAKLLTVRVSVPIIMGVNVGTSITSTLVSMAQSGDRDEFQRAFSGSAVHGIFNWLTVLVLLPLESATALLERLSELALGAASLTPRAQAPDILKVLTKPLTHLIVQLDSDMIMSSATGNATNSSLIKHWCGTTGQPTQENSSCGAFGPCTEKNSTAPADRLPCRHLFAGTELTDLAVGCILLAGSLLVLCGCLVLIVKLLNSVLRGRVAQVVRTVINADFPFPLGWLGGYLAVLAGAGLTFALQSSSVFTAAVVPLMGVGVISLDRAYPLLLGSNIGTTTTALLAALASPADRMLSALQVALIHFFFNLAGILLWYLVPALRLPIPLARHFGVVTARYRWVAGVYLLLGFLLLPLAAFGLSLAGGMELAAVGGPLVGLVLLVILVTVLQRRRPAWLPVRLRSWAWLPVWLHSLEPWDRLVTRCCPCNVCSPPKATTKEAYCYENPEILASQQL

FcγRIIa (CD32) (H131) = biological target: T4, FcγRIIa (CD32) (H131) (Fused to the SmBiT luciferase fragment (Promega Lumit reagent), not carried in the letters); experiment: Lumit FcγRIIa (H131) Binding Immunoassay (Promega), left panel FcγRIIa (CD32) (H131), competition with Tracer-LgBiT for FcγR-SmBiT, n=1
T4 construct: m20 joins both polymorphic variants; also called H131 variant of m20; not shown: SmBiT tag (and any linker or purification tag) of Promega's FcγR-SmBiT fusion
T4 chain: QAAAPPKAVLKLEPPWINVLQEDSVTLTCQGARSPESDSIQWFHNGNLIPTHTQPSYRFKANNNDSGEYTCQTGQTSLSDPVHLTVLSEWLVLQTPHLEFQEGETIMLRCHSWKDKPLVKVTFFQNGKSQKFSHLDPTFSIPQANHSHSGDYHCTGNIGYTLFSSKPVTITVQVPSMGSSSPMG

FcγRIIIa (CD16) (F158) = biological target: T5, FcγRIIIa (CD16) (F158) (Homo sapiens, UniProt P08637); experiment: Lumit FcγRIIIa (F158) Binding Immunoassay (Promega), right panel FcγRIIIa (CD16) (F158), competition with Tracer-LgBiT for FcγR-SmBiT, falling luminescence means binding, n=1
T5 construct: m21 joins both polymorphic variants; also called F158 variant of m21

[3] = biological target: T6, human Napi2b-mCherry on HEK293 cells (human, UniProt O95436 1-690); experiment: flow cytometry on HEK293 cells expressing human Napi2b-mCherry (panel Napi2b-HEK293), Alexa-dye anti-human IgG H+L secondary antibody, MFI ratio to the non-specific binding control
T6 construct: also called Napi2b (SLC34A2); HEK293 cells overexpressing Napi2b
T6 sequence: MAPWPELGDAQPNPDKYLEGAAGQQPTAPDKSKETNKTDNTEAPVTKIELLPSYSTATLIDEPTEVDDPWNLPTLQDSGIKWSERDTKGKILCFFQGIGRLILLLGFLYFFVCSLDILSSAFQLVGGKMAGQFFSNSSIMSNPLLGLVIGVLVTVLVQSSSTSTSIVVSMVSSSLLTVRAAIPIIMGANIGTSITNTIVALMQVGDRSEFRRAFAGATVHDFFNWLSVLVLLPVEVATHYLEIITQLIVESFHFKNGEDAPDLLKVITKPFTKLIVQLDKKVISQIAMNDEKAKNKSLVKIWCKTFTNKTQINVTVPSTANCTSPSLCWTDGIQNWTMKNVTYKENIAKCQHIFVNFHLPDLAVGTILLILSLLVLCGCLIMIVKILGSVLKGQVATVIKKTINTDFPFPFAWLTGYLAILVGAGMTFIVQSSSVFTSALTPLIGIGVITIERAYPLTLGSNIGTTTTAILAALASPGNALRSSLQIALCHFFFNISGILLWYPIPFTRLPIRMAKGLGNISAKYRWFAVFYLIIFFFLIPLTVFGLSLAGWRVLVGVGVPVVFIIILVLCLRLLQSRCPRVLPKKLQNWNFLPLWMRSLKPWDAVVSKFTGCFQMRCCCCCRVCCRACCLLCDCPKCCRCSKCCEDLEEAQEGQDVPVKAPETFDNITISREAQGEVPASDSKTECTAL

[4] = biological target: T7, human Napi2a-mCherry on HEK293 cells (human, UniProt Q06495 1-639); experiment: flow cytometry on HEK293 cells expressing human Napi2a-mCherry (panel Napi2a-HEK293), MFI ratio to the non-specific binding control
T7 construct: whole, on cells; also called Napi2a (SLC34A1); not shown: mCherry fusion
T7 sequence (looked up): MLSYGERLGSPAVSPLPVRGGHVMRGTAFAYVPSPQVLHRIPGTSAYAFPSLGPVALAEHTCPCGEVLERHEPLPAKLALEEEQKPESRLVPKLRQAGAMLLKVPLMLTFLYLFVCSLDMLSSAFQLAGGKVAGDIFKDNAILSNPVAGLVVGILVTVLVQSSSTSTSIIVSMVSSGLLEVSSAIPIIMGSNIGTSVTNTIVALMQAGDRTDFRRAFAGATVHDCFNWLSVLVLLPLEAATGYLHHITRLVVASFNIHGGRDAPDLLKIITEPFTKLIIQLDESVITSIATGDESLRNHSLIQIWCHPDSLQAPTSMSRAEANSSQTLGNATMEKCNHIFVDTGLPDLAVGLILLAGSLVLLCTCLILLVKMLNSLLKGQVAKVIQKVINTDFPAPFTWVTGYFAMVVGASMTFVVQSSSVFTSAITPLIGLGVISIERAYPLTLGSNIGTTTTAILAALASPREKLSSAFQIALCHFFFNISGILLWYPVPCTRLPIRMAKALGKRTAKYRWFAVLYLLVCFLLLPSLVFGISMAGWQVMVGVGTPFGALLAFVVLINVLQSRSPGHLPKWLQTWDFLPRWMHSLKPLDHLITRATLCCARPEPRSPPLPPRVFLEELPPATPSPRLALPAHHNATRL

[5] = biological target: T8, recombinant human FcγRI (FcγR-SmBiT, Lumit assay) (human, UniProt P12314 16-292); experiment: Lumit FcγRI Binding Immunoassay (Promega), competition with Tracer-LgBiT for FcγRI-SmBiT, falling luminescence means binding, n=1
T8 construct: Kit reagent (Promega); also called FcγRI (CD64); not shown: SmBiT label of the kit
T8 sequence (P12314 16-292): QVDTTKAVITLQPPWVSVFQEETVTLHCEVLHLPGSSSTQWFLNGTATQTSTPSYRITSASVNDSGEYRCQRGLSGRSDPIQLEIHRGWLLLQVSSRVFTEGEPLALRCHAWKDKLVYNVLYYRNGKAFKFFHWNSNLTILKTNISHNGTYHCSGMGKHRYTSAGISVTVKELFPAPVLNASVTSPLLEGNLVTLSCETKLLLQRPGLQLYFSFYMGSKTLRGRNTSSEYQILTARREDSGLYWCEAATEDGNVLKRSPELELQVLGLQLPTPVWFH

T2 sequence (P08637 17-208 F176V limits assumed): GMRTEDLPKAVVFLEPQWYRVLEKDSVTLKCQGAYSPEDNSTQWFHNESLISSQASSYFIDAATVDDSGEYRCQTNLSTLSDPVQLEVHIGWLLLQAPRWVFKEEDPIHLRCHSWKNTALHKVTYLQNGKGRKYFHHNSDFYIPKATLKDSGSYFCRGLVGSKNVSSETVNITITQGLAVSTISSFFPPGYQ
T5 sequence (P08637 17-208 limits assumed): as the sequence (P08637 17-208 F176V limits assumed) above, with V160F counted along it

B1: AV25-P5(PEG24)-VC-PAB-Exatecan DAR8 ADC (antibody, human IgG1, kappa, L234A L235A)
heavy: not shown
light: DIQMTQSPSSLSASVGDRVTITCSASQDIGNFLNWYQQKPGKTVKVLIYYASSLYSGVPSRFSGSGSGTDYTLTISSLQPEDFATYYCQQYSKLPLTFGQGTKLELKRTVAAPSVFIFPPSDEQLKSGTASVVCLLNNFYPREAKVQWKVDNALQSGNSQESVTEQDSKDSTYSLSSTLTLSKADYEKHKVYACEVTHQGLSSPVTKSFNRGEC
modifications: P5(PEG24)-VC-PAB-Exatecan linker-payload on the interchain cysteine (1 per light chain, DAR8); P5(PEG24)-VC-PAB-Exatecan linker-payload on interchain cysteines (up to 3 per heavy chain, DAR8)
notes: also called TUB-040
[1]
  IC50 of cytotoxicity (resazurin assay, 7 days) on HCC-78, against the anti-Napi2b comparison ADC: 15.5 fold lower IC50
FcγRIIIa (CD16) (V158)
  binding result: binds
[2]
  binding result: no binding (tested: 200 nM)
FcγRIIa (CD32) (H131)
  binding result: no binding
FcγRIIIa (CD16) (F158)
  binding result: binds
[3]
  EC50 (read off the curve): ~0.9 nM
[4]
  binding result: no binding (tested: 200 nM)
[5]
  binding result: binds
